The assay has as its target T1, WASp 289-304 signature peptide (human).
T1 construct: Endogenous tryptic peptide released from human dried blood spot digests
T1 peptide: LIYDFIEDQGGLEAVR
The assay can be described thus: immuno-SRM: peptide enrichment from normal control DBS digests, quantified by LC-SRM-MS.

The record followed here is US20230194545A1 (SEATTLE CHILDREN S HOSPITAL D B A SEATTLE CHILDREN S …, published 2023).

B1: Anti-WASp 289 monoclonal antibody (antibody, V domains shown)
VH: QSVEESGGRLVTPGTPLTLTCTVSGFSLSSSDMTWVRQAPGKGLEYIGYMSSNDRPYYASWANGRFTISKTSTTVTLKITSPTTEDTATYFCCRGVLGTRSIHIWGPGTLVTVSL
VL: IVMTQTPSPVSAAVGGTVTINCQASESVYSDNRLSWYQQKPGQPPKQLIYGASTLASEVSSRFKGSGSGTQFTLTINDVVCDDAATYYCAGYKSSNQDGIGFGGGTEVVVKG
modifications: In the assay the antibody was chemically cross-linked (DMP) to Protein G magnetic beads; the letters do not carry this.
notes: Rabbit monoclonal antibody raised against the KLH-conjugated peptide; The printed light chain holds an X near its C-terminus; In the assay the antibody was cross-linked to Protein G magnetic beads
B1: the binding result is “binds”.
